Consider two proteins from paper PMC6923934, “The peptide transporter 1a of the zebrafish Danio rerio, an emerging model in nutrigenomics and nutrition research: molecular characterization, functional properties, and expression analysis” (Genes & Nutrition, 2019).

Substrate in series [1]: NCC(=O)N[C@@H](CCC(N)=O)C(=O)O
Kind of series: two-electrode voltage clamp, transport current in Xenopus oocytes. It counts as cell-based, Danio rerio. The note with it: pH 6.5, -60 mV, NaCl buffer, proton-coupled. An excerpt: two-electrode voltage clamp, transport current in Xenopus oocytes on zebrafish PepT1b (Slc15a1b)

Substrate in series [2]: NCC(=O)N[C@@H](CCC(N)=O)C(=O)O
The series is described as above. It counts as cell-based, Danio rerio. Conditions: pH 6.5, -60 mV, NaCl buffer, proton-coupled. An excerpt: two-electrode voltage clamp, transport current in Xenopus oocytes on zebrafish PepT1a (Slc15a1a)
This is another data set of the same source.

B1: zebrafish PepT1b (Slc15a1b) (Danio rerio) (protein)
chain: MADKEGHKQKKERASCFGYPVSIFFIVVNEFCERFSYYGMKAVLVLYFKYFIGWDDDLSTTIYHTFVALCYLTPIMGAIIADSWLGKFKTIVYLSIVYTIGQVIMAISAIHDITDANRDGKPDNKTLHISLSMLGLILIALGTGGIKPCVAAFGGDQFEDHQEKQRSTFFSIFYLSINAGSLLSTLITPILRSQECGIYAKQSCYPLAFGVPAALMVVALIVFVIGHKMYIMESPKGNILLQVINCIGFALNNRFRHRGKQYPKREHWMDWAEEKYDKLLIAQVKMVVKVLFLYIPLPMFWALFDQQGSRWTIQATTMDGNFGGFVIQPDQMQIVNPILIVIMVPIMDSAIYPLIKLCRINFTPLRKMTVGMVLAALAFVAAALLQLQIDETMPKFPSTSQTQLKFLNVESTSLPVVVEGQDQFMVPGFNASSEYLTLDKENVTISAGGVNDTAFLKTGTRHTVLMNAAGMRNTLDDLTEKPEQGLNAIRFVNGWENRLNVSVKSDNVHADPLDASVYLLVPHGKVNFTIFDGGDGKCHYIMQLGFGSTYTVLIPSTFAFGQTCSESFEAVQDMEPNRIHMAWQVIQYFLLTCGEVVYSVTGLDFSYSQAPSNMKSVLQAGWLLTVAVGNIIVLIVAEAGSLPDQWAEYLLFASLLVAVSIIFAIMAYFYTYIDPNEIEAKFKELEPEDKKRKEMQMTAKDNMAYVHNENTNIKQTKI
notes: cRNA-expressed in Xenopus laevis oocytes; construct not described here (previously cloned zebrafish PepT1)
On to B1, for which the K0.5 in series [1] is on record as 0.13 ± 0.02 mmol/L.

B2: zebrafish PepT1a (Slc15a1a) (Danio rerio) (protein)
chain: MPDSKMDETKKKKKKTAECCGYPISIFFIVVNEFCERFSYYGMRAVLVLYFRYFLLWDDDLATSIYHAFVALCYLTPILGAIIADSWLGKFKTIIYLSIVYAVGQVVMAVSTIHDITDANRDGTPDNFTLHIALSMLGLVLIALGTGGIKPCVAAFGGDQFQEHQSRQLNTFFSVFYLCINAGSLLSTLITPVLRAQECGIHTQQQCYPLAFGVPAALMVVSLVVFIAGSGMYTKTAPEGNIMGSVCKCIWFALNNRFRHRSDIYPKREHWMDWAEEKYDKLLIAQIKMVLKVLFLYIPLPMFWTLFDQKGSRWTLQATTMTGDFGGFVLQPDQMQTVNPILILTLVPIMDRIIFPLIKKCGLNFSPLKRMTVGMLFAATAFIAAALVQMEIDKTLPNFPSSSESQLKVVNMHSESLIVTVPSQEPLLIGSFESSPDYITFDQQDIRLAFNTTPEINKDLSLIKGSRQTLIIPSEPAEMYLKEDIKSKPKEGKNAVRFVNGWTAYLNITNLESSLQPSETSNYTLVSQGMRKFTLTDGIQSCEFSRKFGFGSSYTFLIPSDLFSTDCESIKEIEDMQPNSVHMALQIPQYFLITTGEVMFSVTGLQFSYSQAPKNMKSVLQAGWLCTNAVGNIIVLIVAELGKLPKQWAEYVLFASLLVAVSIIFSIMAYFYTYIDPAEIEAEILKQQETDPDKKKKKETLEMEEKENEQEIKQTKI
notes: full-length cDNA cloned from zebrafish intestine, 717 residues, pSPORT1, cRNA in Xenopus laevis oocytes; untagged
As for B2, in series [2], the K0.5 was 0.24 ± 0.07 mmol/L.
